Measurements published in patent publication US12059458B2, “Peptides and combination of peptides and scaffolds for use in immunotherapy against renal cell carcinoma (RCC) and other cancers” (Immatics Biotechnologies GmbH, priority 2015, dated 2024).

Molecular target: HLA-A*02:01 (Homo sapiens, UniProt P04439, D140Y/D185E/D98H/E176V/E277Q/G131W/G231S/I119V/I121R/I166T/I218V/L300P/L318F/N151K/N90K/P208A/P217A/Q86G/Q94H/R138H/R169H/T345S)
Experiment: MHC binding assay (UV-ligand exchange, beta2m ELISA, peptide exchange yield)
Conditions: binding to HLA-A*02:01 ranged by peptide exchange yield, β2m ELISA
Text: Candidate peptides for T cell based therapies according to the present invention were further tested for their MHC binding capacity (affinity). The individual peptide-MHC complexes were produced by UV-ligand exchange, where a UV-sensitive peptide is cleaved upon UV-irradiation, and exchanged with the peptide of interest as analyzed. Only peptide candidates that can effectively bind and stabilize the peptide-receptive MHC molecules prevent dissociation of the MHC complexes. To determine the yield of the exchange reaction, an ELISA was performed based on the detection of the light chain (β2m) of stabilized MHC complexes. The assay was performed as generally described in Rodenko et al. (Rodenko et al., 2006).
96 well MAXISorp plates (NUNC) were coated over night with 2 ug/ml streptavidin in PBS at room temperature, washed 4× and blocked for 1 h at 37° C. in 2% BSA containing blocking buffer. Refolded HLA-A*02:01/MLA-001 monomers served as standards, covering the range of 15-500 ng/ml. Peptide-MHC monomers of the UV-exchange reaction were diluted 100 fold in blocking buffer. Samples were incubated for 1 h at 37° C., washed four times, incubated with 2 ug/ml HRP conjugated anti-β2m for 1h at 37° C., washed again and detected with TMB solution that is stopped with […]. Absorption was measured at 450 nm. Candidate peptides that show a high exchange yield (preferably higher than 50%, most preferred higher than 75%) are generally preferred for a generation and production of antibodies or fragments thereof, and/or T cell receptors or fragments thereof, as they show sufficient avidity to the MHC molecules and prevent dissociation of the MHC complexes.

Row | Substance | Peptide exchange (MHC class I binding score)
1 | 4 (FLSQDIITV; listed as Homo sapiens) [compound 4] | +++ (≥50 = +++)
2 | 5 (YLYPNLTRL; listed as Homo sapiens) [compound 5] | ++ (≥20% = ++)
3 | 8 (GLASFKSFL; listed as Homo sapiens) [compound 8] | ++ (≥20% = ++)
4 | 10 (KLLQNNYGL; listed as Homo sapiens) [compound 10] | ++ (≥20% = ++)
5 | 11 (FIQTEAPKEV; listed as Homo sapiens) [compound 11] | ++ (≥20% = ++)
6 | 12 (ALDPSGNQLI; listed as Homo sapiens) [compound 12] | ++ (≥20% = ++)
7 | 13 (KIMAQILTV; listed as Homo sapiens) [compound 13] | +++ (≥50 = +++)
8 | 14 (ALLTETIFL; listed as Homo sapiens) [compound 14] | ++ (≥20% = ++)
9 | 17 (ILAQQVHAL; listed as Homo sapiens) [compound 17] | +++ (≥50 = +++)
10 | 19 (LLDPGSLQL; listed as Homo sapiens) [compound 19] | ++ (≥20% = ++)
11 | 21 (RLIQGDQILSV; listed as Homo sapiens) [compound 21] | ++ (≥20% = ++)
12 | 23 (YIQEVVQYI; listed as Homo sapiens) [compound 23] | +++ (≥50 = +++)
13 | 24 (FTLGTTVFL; listed as Homo sapiens) [compound 24] | +++ (≥50 = +++)
14 | 25 (LLVPAHLVAA; listed as Homo sapiens) [compound 25] | ++ (≥20% = ++)
15 | 27 (SLSDLLVSL; listed as Homo sapiens) [compound 27] | +++ (≥50 = +++)
16 | 28 (FIADLVVGL; listed as Homo sapiens) [compound 28] | ++ (≥20% = ++)
17 | 30 (QLFYTKIFL; listed as Homo sapiens) [compound 30] | ++ (≥20% = ++)
18 | 31 (VLFGLDPAVIKV; listed as Homo sapiens) [compound 31] | +++ (≥50 = +++)
19 | 33 (FIADVVEKI; listed as Homo sapiens) [compound 33] | ++ (≥20% = ++)

Row | Substance | Peptide exchange (MHC class I binding score)
20 | 35 (VLHSLQTQL; listed as Homo sapiens) [compound 35] | ++ (≥20% = ++)
21 | 37 (VLAPVILML; listed as Homo sapiens) [compound 37] | ++ (≥20% = ++)
22 | 38 (VLLDTILQL; listed as Homo sapiens) [compound 38] | +++ (≥50 = +++)
23 | 39 (YLLNLNHLGL; listed as Homo sapiens) [compound 39] | +++ (≥50 = +++)
24 | 40 (YIQEHLLQI; listed as Homo sapiens) [compound 40] | +++ (≥50 = +++)
25 | 41 (GLLKTLQKL; listed as Homo sapiens) [compound 41] | ++ (≥20% = ++)
26 | 42 (VILDTGTIQL; listed as Homo sapiens) [compound 42] | ++ (≥20% = ++)
27 | 43 (YLKDELDEL; listed as Homo sapiens) [compound 43] | +++ (≥50 = +++)
28 | 44 (ALFSFVTAL; listed as Homo sapiens) [compound 44] | +++ (≥50 = +++)
29 | 45 (ALLGIPLTL; listed as Homo sapiens) [compound 45] | +++ (≥50 = +++)
30 | 46 (GLSEVLVQI; listed as Homo sapiens) [compound 46] | +++ (≥50 = +++)
31 | 47 (TLAEVRAVQEI; listed as Homo sapiens) [compound 47] | +++ (≥50 = +++)
32 | 48 (VVASNIMEV; listed as Homo sapiens) [compound 48] | ++ (≥20% = ++)
33 | 49 (VLIVEVPGV; listed as Homo sapiens) [compound 49] | +++ (≥50 = +++)
34 | 50 (SLSDHIVLL; listed as Homo sapiens) [compound 50] | ++ (≥20% = ++)
35 | 51 (NLWPMILTL; listed as Homo sapiens) [compound 51] | +++ (≥50 = +++)
36 | 52 (SILDAVQRV; listed as Homo sapiens) [compound 52] | ++ (≥20% = ++)
37 | 53 (FLLEIRQTL; listed as Homo sapiens) [compound 53] | ++ (≥20% = ++)

Next, values leading:

Row | Peptide exchange (MHC class I binding score) | Substance
38 | ++ (≥20% = ++) | 54 (ALVAKGLVQA; listed as Homo sapiens) [compound 54]
39 | ++ (≥20% = ++) | 55 (YLALILPVL; listed as Homo sapiens) [compound 55]
40 | +++ (≥50 = +++) | 56 (ILMDFSNSM; listed as Homo sapiens) [compound 56]
41 | ++ (≥20% = ++) | 57 (SLQKEILYL; listed as Homo sapiens) [compound 57]
42 | ++++ (≥75% = ++++) | 58 (FLVDFEQSHL; listed as Homo sapiens) [compound 58]
43 | +++ (≥50 = +++) | 59 (SLKNNVVSV; listed as Homo sapiens) [compound 59]
44 | +++ (≥50 = +++) | 60 (ILWKDIEYV; listed as Homo sapiens) [compound 60]
45 | ++ (≥20% = ++) | 61 (SLMGILLRI; listed as Homo sapiens) [compound 61]
46 | +++ (≥50 = +++) | 62 (VLAGPAFLVQL; listed as Homo sapiens) [compound 62]
47 | ++ (≥20% = ++) | 63 (GLIEDHFDVTV; listed as Homo sapiens) [compound 63]
48 | ++ (≥20% = ++) | 64 (LLAASVALA; listed as Homo sapiens) [compound 64]
49 | ++ (≥20% = ++) | 65 (IIYGGSVTGA; listed as Homo sapiens) [compound 65]
50 | ++ (≥20% = ++) | 66 (TLLKTIIKV; listed as Homo sapiens) [compound 66]
51 | ++ (≥20% = ++) | 67 (LLDVLAPLV; listed as Homo sapiens) [compound 67]
52 | ++ (≥20% = ++) | 68 (YVLTQPPSV; listed as Homo sapiens) [compound 68]
53 | ++ (≥20% = ++) | 69 (ILADLLPSL; listed as Homo sapiens) [compound 69]

Row | Peptide exchange (MHC class I binding score) | Substance
54 | ++ (≥20% = ++) | 70 (SLTALRLLL; listed as Homo sapiens) [compound 70]
55 | +++ (≥50 = +++) | 71 (ALDGHLYAV; listed as Homo sapiens) [compound 71]
56 | ++ (≥20% = ++) | 72 (YSLEKVFGI; listed as Homo sapiens) [compound 72]
57 | +++ (≥50 = +++) | 73 (GLDGIPFTV; listed as Homo sapiens) [compound 73]
58 | +++ (≥50 = +++) | 74 (GLFHKQVTV; listed as Homo sapiens) [compound 74]
59 | +++ (≥50 = +++) | 75 (FLIKSINLV; listed as Homo sapiens) [compound 75]
60 | ++ (≥20% = ++) | 76 (VLADDHLIEV; listed as Homo sapiens) [compound 76]
61 | ++ (≥20% = ++) | 77 (SLIKHKIML; listed as Homo sapiens) [compound 77]
62 | ++ (≥20% = ++) | 78 (ALLDTVVQA; listed as Homo sapiens) [compound 78]
63 | +++ (≥50 = +++) | 79 (ALADIVWRA; listed as Homo sapiens) [compound 79]
64 | +++ (≥50 = +++) | 80 (KLASMLETL; listed as Homo sapiens) [compound 80]
65 | ++ (≥20% = ++) | 81 (SLLPALPKL; listed as Homo sapiens) [compound 81]
66 | +++ (≥50 = +++) | 82 (SLLQATDFMSL; listed as Homo sapiens) [compound 82]
67 | +++ (≥50 = +++) | 83 (IQWSIVPEV; listed as Homo sapiens) [compound 83]
68 | ++ (≥20% = ++) | 84 (YLMDEGAHL; listed as Homo sapiens) [compound 84]
